According to the DeepSol protein solubility set:

Test: soluble on expression in E. coli; label from the status in PepcDB or PDB records
In the case of “MQPTRRSYSNPFKAQVIQECSQPGASIASVALSHNLNANLVHKWIRLHAQKSPTLPPAFIPLAMPPAGANPHPASPNICVEIQHTRGTVKVSWPTENAAACATFLRDLLRLEHHHHHH”, the “soluble on expression in E. coli” value is reported as “not soluble”. In the case of “MGEAAYVTVSALTKYIKRKFDVDPHLENIWIKGELSNVKIHTRGHIYFTLKERKGRMQSVMFARQSERLPFKPENGMKVLVRGGISVYEPSGNYQLYAKEMQPDGVGALYLAYEELKKKLAGEGLFDDRYKKQIPAFPATIGVVTSPTGAAVRDVITTLKRRYPLVKVIVLPALVQGENASRSIVTRIEEANEKEICDVLIVGRGGGSIEELWAFNEEIVARAIFASNIPIISAVGHETDFTISDFVADIRAATPTGAAEIAVPHTTDLIERTKTAEVRMTRAMQQHLGQEKGRIQTLQSSYAFRFPKRLYAQKEQQFDLAYQQFQAQLTALLDRKSRQLERETYRLEALHPHEQLKQARTRYQEQTNQLRKNMNIQMKQLHSQFQTVLGKLNALSPLQVMERGYSLAYKEDKLIKSVSQIEEQDRLEIKLKDGVLTCEVLEKRGEEK”, the “soluble on expression in E. coli” value is reported as “not soluble”. For “MVRVDVEERFNRIARNTVEIVTEEELKGLLASGARIKGYIGYEPSGVAHIGWLVWMYKVKDLVEAGVDFSVLEATWHAYINDKLGGDMDLIRAAARIVRRVMEAAGVPVERVRFVDAEELASDKDYWGLVIRVAKRASLARVRRALTIMGRRAEEAEVDASKLIYPLMQVSDIFYMDLDIALGGMDQRKAHMLARDVAEKLGRKKPVAIHTPIISSLQGPGRMEASQGEIDDVLAEVKMSKSKPETAVFVVDSDDDIRRKIRKAYCPAKQVQGNPVLEIARYILFARDGFTLRVDRPAKYGGPVEYTSYEELERDYTDGRLHPLDLKNAVAESLIEVVRPIRGAVLGDPAMKRALEAIEGKVTR”, the “soluble on expression in E. coli” value was “soluble”. With “MSLSQNNPLRALLDKQDILLLDGAMATELEARGCNLADSLWSAKVLVENPELIREVHLDYYRAGAQCAITASYQATPAGFAARGLDEAQSKALIGKSVELARKAREAYLAENPQAGTLLVAGSVGPYGAYLADGSEYRGDYHCSVEAFQAFHRPRVEALLDAGADLLACETLPNFSEIEALAELLTAYPRARAWFSFTLRDSEHLSDGTPLRDVVALLAGYPQVVALGINCIALENTTAALQHLHGLTVLPLVVYPNSGEHYDAVSKTWHHHGEHCAQLADYLPQWQAAGARLIGGCCRTTPADIAALKARSEGGSHHHHHH” the “soluble on expression in E. coli” value was “soluble”. In the case of “MIRTDNLSDLASARDYWRTDKYISFVITFQFYLLLDTMSDSFNWPAGNNEARERLGEKFESLHLDSRISTSHAKPLSNADPVVVPIYHSSTYRFKTVDQFNEDNHGANFVYRRCGNPTTENVEVVINEIEGGAGSLLYNSGLAAISAVFLEFLSSGAHMIVMNPIYSGTSSFINETLARFGVEITSVDVEKEKDFAGAVEKAIRPNTKMIYFESIANPTMAVPDILGTIEVAKKYKILTCLDATFSSPYNIQPLKLGADISLHSCSKYIGGHTDVIAGVVTVSSYDNWKKLKLQQLTTGSSLSPYDAALLTRGLKTLGLRVDRISENAQKTAEFLESHPKVERVFYPGLPSHPQHQYAKQVMKQFAGMIAFDVGTAENAIKLVESLKLIIHAVSLGGTESLIEHPLSMSHGKHLLRYLDGPTVAPGLLRFSVGIENVEDIIGDLNDALEKL”, the “soluble on expression in E. coli” value is reported as “not soluble”. In the case of “MKKTFEKVYHLKLSIKGITPQIWRRIQVPENYTFLDLHKAIQAVMDWEDYHLHEFEMVNPKTGMLDKIGAEGDDFDAFGGPLVSEKKAKLSDYFTLENKEALYTYDFGDNWQVKVRLEKILPRKEGVEYPICTAGKRAAVPEDSGGVWGYEEMLEVLKDSEHEEYEDTVLWLGDDFDPEYFDPKDVSF”, the “soluble on expression in E. coli” value is reported as “soluble”. In the case of “MAHHHHHHMTTYTLVLLRHGESTWNKENKFTGWTDVPLSEKGEEEAIAAGKYLKEKNFKFDVVYTSVLKRAICTAWNVLKTADLLHVPVVKTWRLNERHCGSLQGLNKSETAKKYGEEQVKIWRRSYDIPPPKLDKEDNRWPGHNVVYKNVPKDALPFTECLKDTVERVLPFWFDHIAPDILANKKVMVAAHGNSLRGLVKHLDNLSEADVLELNIPTGVPLVYELDENLKPIKHYYLLDSEELKKKMDEVANQGKAK”, the “soluble on expression in E. coli” value is reported as “soluble”. For “MSINKIEEDRDISSDLEMKAKMYLVHRMDKAGPLTVKDVRILINKLSKDLQKNQLTLIDCQLIINLVESRFTLVKQATRYLQFFLNKLDGKSINPILIPLSNKPFWQNEPHPFDHYRSTDQLPEKVDIVIIGAGLTGASTAYHLIDAVKKRHLTVVLLDKGNPATEASGRNGGNFELLPENSVGIYSGLVSERFRFLKRCYPHVHPSILQIESEYHASLVFQFALKNRNRFKEIARKERIYCDLAAKGWLYIAHTEEEEQAICDEVTLAAQHGERIYIWSRKKIREQFGINSKFIGRFIPDDGTYNPFKYTCCLIKAAIKSGIKLYTFVKVQQIKSIDTEYHQLKTNMGLLKARQVIVATNAFTSELLPELRAIKPHQSQIAITDSTPDYCKGRLITSEDGPLYLNQPRVRSKNGLVPLLIGAGDDRPMKNPYYRKRSKKVHDLIVQQRDKYFPNLKGRPFSTEWVGALAFTPDQLPAIGYLSPGIIIVMCCNGYGGSYTTAAGLAAAEIALTGKNPPWLPADVFSPKRLLSDKPLFWEDSDSLWRIGKTLCTTLNNLNQLLAESLSYQSMYQPYSTISLLPHGHQEKNCNLDPLRVMHQLAIFRTFAYQELEMLIRYTSPVCLSKGEILFKQGDAGHSCFILIQGKINLYYEHAEGFTSMVAELEAGSVFGQMALFLENKRMATCQATENCSMLEIMVEPCKSLFIQQQALGIKLLRLLNQGVIDALHKLNKRLKYT”, the “soluble on expression in E. coli” value was “not soluble”. For “MGSDKIHHHHHHMIRNCFLCAAKTDNVFSSTWMLPGLAPTEIGFSICPKCGSVCQSPSVSYDDMMTIYSSIAVYTNPGRQGLPSSAKIRDLDEQIQFIKRGIGHLPKSAMQIGSSDGYTLSRFRQAGVELVMGVEPGSTSIEIAKRLYNIDCIHGTAEDFETDKDFELILLTHVLEHIYEPQVTLDKCRKIQNTPGEKFIYVEVPLMATAASLCPGFLTFEHVNYYTKENLICSLTQAGYWPVSVVEHFNSNLSPIIGILASTREQHHYDVMKMDVQLNRKRLSEYRQKELSYWQNCVDCIKVSLQQSQRIFLWGAGIHTCQLLANTDLLDHSRIFGLTDTSSLKWGLRQGEWICQDPQQIDWQVGDTVLISSYASEKEIFDALYWLRDKGVNTLRLHNVDDTRAIV”, the “soluble on expression in E. coli” value was “not soluble”. With “NKVNDESVEYFGQRNEFRQASDFMEERISGMTNISIAIKTNESQGIAAPDFLNTIGEFSSWLRDQPETDHVATLADVYKRLNKNMHGDDEAYYLLPQERELAAQYLLLYEMSLPYGLDLNNQINVDKSSIKMVLTVANLGSVELVDLENRIYQWFAEHAPQYQVVASSPSLMFAHIGETN” the “soluble on expression in E. coli” value was “not soluble”. For “MGSDKIHHHHHHMNKNNQYVLSLACQDAPGIVSEVSTFLFNNGANIVEAEQFNDEDSSKFFMRVSVEIPVAGVNDFNSAFGKVVEKYNAEWWFRPRTDRKKVVIMVSKFDHCLGDLLYRHRLGELDMEVVGIISNHPREALSVSLVGDIPFHYLPVTPATKAAQESQIKNIVTQSQADLIVLARYMQILSDDLSAFLSGRCINIHHSFLPGFKGAKPYHQAHTRGVKLIGATAHFVTADLDEGPIIAQDVEHVSHRDSAEDLVRKGRDIERRVLSRAVLLFLEDRLIVNGERTVVFAD”, the “soluble on expression in E. coli” value was “not soluble”. For “MSLTESFSTPKFHISPTGMIMEGAQLHIKCTIQVTHLAQEFPEIIIQKDKAIVAHNRHGNKAVYSVMAMVEHSGNYTCKVESSRISKVSSIVVNITELFSKPELESSFTHLDQGERLNLSCSIPGAPPANFTIQKEDTIVSQTQDFTKIASKSDSGTYICTAGIDKVVKKSNTVQIVVCEMLSQPRISYDAQFEVIKGQTIEVRCESISGTLPISYQLLKTSKVLENSTKNSNDPAVFKDNPTEDVEYQCVADNCHSHAKMLSEVLRVKVIAPVDEVQISILSSKVVESGEDIVLQCAVNEGSGPITYKFYREKEGKPFYQMTSNATQAFWTKQKASKEQEGEYYCTAFNRANHASSVPRSKILTVRVIEGHHHHHH”, the “soluble on expression in E. coli” value was “not soluble”. In the case of “GSHMDTSLAEEVQQTMATLAPNRFFFMSPYRSFTTSGCFARFDEPAVNGDSPDSPFQQKLAALFADAKAQGIKNPVMVGAIPFDPRQPSSLYIPESWQSFSRQEKQASARRFTRSQSLNVVERQAIPEQTTFEQMVARAAALTATPQVDKVVLSRLIDITTDAAIDSGVLLERLIAQNPVSYNFHVPLADGGVLLGASPELLLRKDGERFSSIPLAGSARRQPDEVLDREAGNRLLASEKDRHEHELVTQAMKEVLRERSSELHVPSSPQLITTPTLWHLATPFEGKANSQENALTLACLLHPTPALSGFPHQAATQVIAELEPFDRELFGGIVGWCDSEGNGEWVVTIRCAKLRENQVRLFAGAGIVPASSPLGEWRETGVKLSTMLNVFGLH”, the “soluble on expression in E. coli” value is reported as “soluble”. For “GMIKIAIVGFGTVGQGVAELLIRKREEIEKAIGEFKVTAVADSKSSISGDFSLVEALRMKRETGMLRDDAKAIEVVRSADYDVLIEASVTRVDGGEGVNYIREALKRGKHVVTSNKGPLVAEFHGLMSLAERNGVRLMYEATVGGAMPVVKLAKRYLALCEIESVKGIFNGTCNYILSRMEEERLPYEHILKEAQELGYAEADPSYDVEGIDAALKLVIIANTIGVKASYEDVEVTGITQITPEAFQVAAEKGYTIRLIAEVSREKLKVSPRLVPFHHPLAIKGTMNAAMFKTDTAGSIFVAGRGAGKEETASAILSDLYEIYAGPR”, the “soluble on expression in E. coli” value was “soluble”. In the case of “MSKLQGKKITPMPISAGITVVDLINEYFTAYNSARLREACKLLSQDIFQAGVTVGVSLSGAMTPAGFGVSALAPLIRHGFIDWMISTGANLYHDVHYALGFELFAGSPFLDDVKLREEGTIRIYDIIFGYDVLLETDAFIRKVLQAEPFQKRMGTAEFHYLLGKYVREVEKQLGVQHSCLLATAYEYGVPIYTSSPGDSSIGMNVAALALEGSRLVLDPAIDVNETSAIAYGARETDGKSAAVILGGGSPKNFLLQTQPQIHEVLGLEERGHNFFVQFTDARPDTGGLSGATPAEAVSWGKIDPDELPSTIVCYTDSTIAIPLVTAYVLNQCQARPVKRLYDRREALLETLQKDYLAAKDKPVVKEEGTEEVPSYRCGTPIKR”, the “soluble on expression in E. coli” value is reported as “not soluble”. For “MPDGDFITLDRVEKVFDVRRKTGFLRSERRRVRAVDSLSFTVARGEMVGYIGPNGAGKSTTIKMLTGILTPSGGRLRVAGIDPSRERTRLAARIGVVFGQRTTLWWDLPLIDSYRLMHRMYRIPDGRYRENLDRCVELLELGDLLDVPVRQLSLGQRMRGDIAAALLHDPEVLYLDEPTIGLDVISKARVREFLRELNAERGTTVLLTTHDLQDIEQLCGRVMVIDHGRLMYDGPLAGLHEVGDSERTLVVDLARELPPIEAAPARVVKVEGPRQWLAFPASESAAPLVARIAAAYPLVDLSVREPDIEAVIAKMLQSMGDTPQPPPEQAEHVVSLEHHHHHH”, the “soluble on expression in E. coli” value was “soluble”. With “MSLGGEVRGPVAVADFAKHVAQLHADGDIGFSKEYEAIQGEALNDEYPSENSQHPENKGKNRYLNVIAYDHSRVHLRQVPGQKKHLDYINANFIDGYQKPRAFIGTQGPLPGTFDCFWRMVWEQRVAVIVMITNLVERGRRKCDMYWPKDGTETYGIIQVRLVKEDVMATYTVRTLHIKHLKMKKKKQSQMEKTVYQYHYTNWPDHGTPDHPLPVINFVKKSTTANLPDGGPIVVHSSAGVGRTGTFIVLDAMLKQIEAKGSLNVFGFLRYIRAQRNYLVQTEEQYIFIHDALVEAITSGETNEGHHHHHH” the “soluble on expression in E. coli” value was “soluble”. In the case of “MAHHHHHHMKGHIFYDVTEKGTPPAEYFVSSTGWGMSVVSPPNVGNCDEWETQVKAERIIVNCPDEMDVKAMCAWMERDGTTDGQAECWKMVEERMDKVGPIPRHIFDANKFVAHSAAIEDALDGINSRDGERHFTHRGVRLWYSGDPPQKVVSVVRARGEFGAGGFLNAAISVCLGRRIAHYFGGRDE”, the “soluble on expression in E. coli” value is reported as “not soluble”.
